According to PMC5356841 (Oncotarget, 2016):

Assays:
[1] = molecular target: T1, individual catalytic domain of human MT1-MMP (MT1-CAT) (human, UniProt P50281, biotin (EZ-Link sulfo-NHS-LC-biotin, 1:20 enzyme-biotin molar ratio) in the Fab binding ELISA only; unlabelled in the competition ELISA and the cleavage assays); test: cell-based or functional assay
[2] = molecular target: T1, individual catalytic domain of human …; test: ELISA; biotin-labelled MT1-CAT (25 nM) captured on streptavidin-coated wells; Fab 0-8,000 nM in TBS/T-0.5% gelatin, 1 h, ambient temperature; detected with HRP-conjugated goat anti-human Fab; Kd = Fab concentration that bound 50% of MT1-MMP; conditions: both partners purified

Binder	IC50 of inhibition of MT1-CAT (5 nM) cleavage of the Mca-PLGL-Dpa-AR-NH2 peptide (1 uM); Fab 0-5,000 nM [1]	Kd [2]	binding result [2]
3A2 Fab (Fab, V domains shown, numbers count on the anti-TDRD3 Fab; From a synthetic human Fab library with 23-27 residue long CDR-H3; selection is described in an accompanying manuscript (submitted); also called 3A2 antibody; 3A2 Fab antibody; source: E. coli, purified from cell lysates (purity >95%)) VH: EVQLVESGGGLVQPGGSLRLSCAASGFNLSSSSMHWVRQAPGKGLEWVASIYPSYSYTYYADSVKGRFTISADTSKNTAYLQMNSLRAEDTAVYYCARVKLQKDKSHQWIRNLVATPYGRYVMDYWGQGTLVTVSS VL: DIQMTQSPSSLSASVGDRVTITCRASQSVSSAVAWYQQKPGKAPKLLIYSASSLYSGVPSRFSGSRSGTDFTLTISSLQPEDFATYYCQQYGYPITFGQGTKVEIK	18 nM	8 nM	–
DX2400 Fab (Fab, V domains shown, VH CDR-H3; Only CDR-H3 is printed; also called DX2400 Fab fragment; source: cloning, expression and isolation reported earlier [66]) VH: EVQLLESGGGLVQPGGSLRLSCAASGFTFSLYSMNWVRQAPGKGLEWVSSIYSSGGSTLYADSVKGRFTISRDNSKNTLYLQMNSLRAEDTAVYYCARGRAFDIWGQGTMVTVSS VL: DIQMTQSPSSLSASVGDRVTITCRASQSVGTYLNWYQQKPGKAPKLLIYATSNLRSGVPSRFSGSGSGTDFTLTISSLQPEDFATYYCQQSYSIPRFTFGPGTKVDIK	8.5 nM	2 nM	–
3E9 Fab (Fab, V domains shown) VH: EVQLVESGGGLVQPGGSLRLSCAASGFNLYYSSMHWVRQAPGKGLEWVASIYPSYGSTYYADSVKGRFTISADTSKNTAYLQMNSLRAEDTAVYYCARNGRYPGFLKRAHKRLLNFKAYVMDYWGQGTLVTVSS VL: DIQMTQSPSSLSASVGDRVTITCRASQSVSSAVAWYQQKPGKAPKLLIYSASSLYSGVPSRFSGSRSGTDFTLTISSLQPEDFATYYCQQGSWYLITFGQGTKVEIK	> 5000 nM	–	–
2B5 Fab (Fab, V domains shown, VH CDR-H3; Only CDR-H3 is printed; Same synthetic human Fab library as 3A2 (accompanying manuscript, submitted); source: E. coli, purified from cell lysates (purity >95%)) VH: EVQLVESGGGLVQPGGSLRLSCAASGFNLSYSSMHWVRQAPGKGLEWVASIYPYSGYTYYADSVKGRFTISADTSKNTAYLQMNSLRAEDTAVYYCARIGVNAWAVKMSQRMLATRGSGWYVMDYWGQGTLVTVSS VL: DIQMTQSPSSLSASVGDRVTITCRASQSVSSAVAWYQQKPGKAPKLLIYSASSLYSGVPSRFSGSRSGTDFTLTISSLQPEDFATYYCQQSSSYPYSPITFGQGTKVEIK	–	–	binds
